Source: US20180230213A1 (AVEO PHARMACEUTICALS, published 2018)

Columns and labels:
Assay in all cases: BLI (Octet QK): rhNotch3 on the sensor, IgG in place of a Notch3 antibody, then the ligand in solution
[1] = target: T1, rhJag1-Fc (human, UniProt P78504 32-1046, limits assumed)
T1 construct: also called R&D Cat. No. 1277-JG-050
Method: (§1) The 4F11 antibody was tested for its ability to inhibit the binding of rhNotch3 binding to human Jag1, Jag2, DLL1 and DLL4. Binding measurements were made by bio-layer interferometry (BLI), using a FortéBio Octet® QK instrument (ForteBio, Menlo Park, Calif.). The ligands tested were rhJag1-Fc (R&D Cat. No. 1277-JG-050), rhJag2-Fc (R&D Cat. No. 1726-JG-050), rhDLL1-Fc (R&D Cat. No. 5026-DL-050), and His tagged rhDLL4 (R&D Cat. No. 1506-D4-050).
(§2) To determine the degree of inhibition of Notch3-ligand binding by antibody 4F11, the Octet sensors were loaded with recombinant human Notch3, and the antibody was allowed to bind, as described in Example 4. In positive control samples, a commercially available Notch3 polyclonal antibody capable of blocking ligand binding to recombinant human Notch3 (Notch3 Specific Control) was used instead of the 4F11 antibody. Then sensors were immersed in 500 ug/ml human IgG, to block non-specific binding. Ligands were prepared at a concentration of 400 nM in PBS containing 3% BSA, and were allowed to bind. The on-rate and off-rate for ligand binding were detected using the Octet QK instrument and software. The 4F11 antibody blocked binding of all four ligands to rhNotch3-Fc (FIG. 5A-5D).

[2] = target: T2, rhJag2-Fc (human, UniProt Q9Y219 27-1080, limits assumed)
T2 construct: also called R&D Cat. No. 1726-JG-050
Method: as §1, §2

[3] = target: T3, His tagged rhDLL4 (human, UniProt Q9NR61 27-524)
T3 construct: also called R&D Cat. No. 1506-D4-050
Method: as §1, §2

T3 sequence (Q9NR61 27-524 limits assumed): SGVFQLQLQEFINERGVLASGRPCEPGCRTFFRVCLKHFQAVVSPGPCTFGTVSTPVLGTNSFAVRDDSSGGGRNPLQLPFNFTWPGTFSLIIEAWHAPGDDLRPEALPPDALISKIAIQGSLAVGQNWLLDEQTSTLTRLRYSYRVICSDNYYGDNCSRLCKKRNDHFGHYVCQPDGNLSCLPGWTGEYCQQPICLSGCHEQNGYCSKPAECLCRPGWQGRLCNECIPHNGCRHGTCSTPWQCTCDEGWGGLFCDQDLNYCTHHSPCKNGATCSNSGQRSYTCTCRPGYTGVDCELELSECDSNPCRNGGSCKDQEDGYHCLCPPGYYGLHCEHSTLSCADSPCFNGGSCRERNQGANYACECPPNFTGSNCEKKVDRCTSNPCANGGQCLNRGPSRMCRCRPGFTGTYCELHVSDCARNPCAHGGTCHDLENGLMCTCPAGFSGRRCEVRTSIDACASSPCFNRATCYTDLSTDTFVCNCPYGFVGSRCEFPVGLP
T2 sequence (Q9Y219 27-1080 limits assumed): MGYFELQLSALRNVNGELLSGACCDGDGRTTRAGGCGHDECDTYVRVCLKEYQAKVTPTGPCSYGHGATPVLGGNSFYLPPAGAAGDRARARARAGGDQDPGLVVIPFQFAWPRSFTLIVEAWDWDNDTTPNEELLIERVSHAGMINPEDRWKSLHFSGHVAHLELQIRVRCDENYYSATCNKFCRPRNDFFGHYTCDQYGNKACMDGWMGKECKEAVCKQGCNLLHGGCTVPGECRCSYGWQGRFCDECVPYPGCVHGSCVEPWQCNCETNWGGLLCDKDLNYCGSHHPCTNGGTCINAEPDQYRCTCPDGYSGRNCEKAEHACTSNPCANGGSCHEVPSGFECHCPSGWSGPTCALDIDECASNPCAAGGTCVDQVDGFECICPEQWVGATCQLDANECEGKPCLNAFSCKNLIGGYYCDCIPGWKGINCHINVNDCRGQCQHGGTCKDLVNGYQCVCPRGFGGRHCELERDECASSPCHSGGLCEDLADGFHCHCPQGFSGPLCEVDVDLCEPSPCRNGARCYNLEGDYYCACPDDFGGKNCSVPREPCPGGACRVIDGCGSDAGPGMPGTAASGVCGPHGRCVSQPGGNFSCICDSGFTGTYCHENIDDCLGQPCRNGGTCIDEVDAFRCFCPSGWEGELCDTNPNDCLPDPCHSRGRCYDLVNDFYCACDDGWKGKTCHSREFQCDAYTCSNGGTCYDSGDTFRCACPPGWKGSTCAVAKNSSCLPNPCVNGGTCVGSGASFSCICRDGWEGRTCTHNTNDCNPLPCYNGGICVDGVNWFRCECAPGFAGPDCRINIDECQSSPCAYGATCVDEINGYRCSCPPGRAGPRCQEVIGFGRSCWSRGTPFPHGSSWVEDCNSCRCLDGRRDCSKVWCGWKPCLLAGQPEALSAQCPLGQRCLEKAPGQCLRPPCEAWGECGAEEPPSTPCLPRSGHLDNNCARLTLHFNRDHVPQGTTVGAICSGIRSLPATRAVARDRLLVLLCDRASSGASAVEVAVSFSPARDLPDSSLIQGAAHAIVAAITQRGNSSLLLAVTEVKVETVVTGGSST

binding result [1]: binds
binding result [2]: binds
binding result [3]: binds
B1: recombinant human Notch3 extracellular domain (containing EGF like domains 1-11) Fc fusion protein (Fc fusion, UniProt Q9UM47 40-467, looked up, not shown: a dimerising Fc or GST)
chain: APPCLDGSPCANGGRCTQLPSREAACLCPPGWVGERCQLEDPCHSGPCAGRGVCQSSVVAGTARFSCRCPRGFRGPDCSLPDPCLSSPCAHGARCSVGPDGRFLCSCPPGYQGRSCRSDVDECRVGEPCRHGGTCLNTPGSFRCQCPAGYTGPLCENPAVPCAPSPCRNGGTCRQSGDLTYDCACLPGFEGQNCEVNVDDCPGHRCLNGGTCVDGVNTYNCQCPPEWTGQFCTEDVDECQLQPNACHNGGTCFNTLGGHSCVCVNGWTGESCSQNIDDCATAVCFHGATCHDRVASFYCACPMGKTGLLCHLDDACVSNPCHEDAICDTNPVNGRAICTCPPGFTGGACDQDVDECSIGANPCEHLGRCVNTQGSFLCQCGRGYTGPRCETDVNECLSGPCRNQATCLDRIGQFTCICMAGFTGTYCE
notes: domain: EGF like domains 1-11; also called rhNotch3-Fc; rhNotch3
